Reference: US20150056222A1 (Regeneron, published 2015)
Changes are numbered by the printed parent chain. Numbers in names are those of the source. Each block holds one binder with its values, some of them ahead of it.

Key:
[1] = target: T1, human prolactin receptor (PRLR) on cells (human, UniProt P16471 25-622); test: cell-based or functional assay
T1 sequence: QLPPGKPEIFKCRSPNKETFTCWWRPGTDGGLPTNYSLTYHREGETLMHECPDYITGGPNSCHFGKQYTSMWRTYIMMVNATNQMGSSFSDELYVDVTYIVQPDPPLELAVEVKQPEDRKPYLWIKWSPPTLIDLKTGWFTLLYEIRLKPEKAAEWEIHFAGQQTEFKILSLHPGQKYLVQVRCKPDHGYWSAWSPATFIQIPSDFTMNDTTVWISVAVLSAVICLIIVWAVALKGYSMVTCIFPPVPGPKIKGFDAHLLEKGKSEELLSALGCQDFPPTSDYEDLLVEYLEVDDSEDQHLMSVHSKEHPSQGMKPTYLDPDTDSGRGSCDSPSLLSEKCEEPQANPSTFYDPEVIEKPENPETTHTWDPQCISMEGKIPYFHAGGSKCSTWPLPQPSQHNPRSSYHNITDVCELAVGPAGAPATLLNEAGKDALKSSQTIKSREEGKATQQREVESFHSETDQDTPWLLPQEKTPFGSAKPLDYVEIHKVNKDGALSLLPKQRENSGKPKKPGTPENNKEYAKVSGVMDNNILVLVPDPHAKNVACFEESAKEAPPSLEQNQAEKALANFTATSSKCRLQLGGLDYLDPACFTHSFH

[2] = target: T2, mfPRLR.mmh (soluble monomeric macaca fascicularis PRLR) (macaca fascicularis); test: SPR, 37C, mAb capture
T2 construct: soluble monomeric construct; also called macaca fascicularis (mf) PRLR.mmh
T2 chain: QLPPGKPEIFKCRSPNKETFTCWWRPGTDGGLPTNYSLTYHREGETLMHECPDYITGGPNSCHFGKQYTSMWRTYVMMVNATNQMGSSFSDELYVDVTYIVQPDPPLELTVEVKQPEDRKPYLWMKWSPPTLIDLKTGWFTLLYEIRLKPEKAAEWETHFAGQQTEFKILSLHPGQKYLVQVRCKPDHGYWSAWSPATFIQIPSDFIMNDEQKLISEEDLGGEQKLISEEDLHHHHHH
Description: (§1) Measurements were conducted on a T200 Biacore instrument. Kinetic association (kₐ) and dissociation (kd) rate constants were determined by processing and fitting the data to a 1:1 binding model using Scrubber 2.0 curve fitting software. Binding dissociation equilibrium constants (KD) and dissociative half-lives (t_{1/2}) were calculated from the kinetic rate constants as: KD (M)=kd/kₐ; and […].

[3] = target: T3, hPRLR.mFc (soluble dimeric human PRLR) (human); test: SPR, 37C, mAb capture
T3 construct: dimeric construct
T3 chain: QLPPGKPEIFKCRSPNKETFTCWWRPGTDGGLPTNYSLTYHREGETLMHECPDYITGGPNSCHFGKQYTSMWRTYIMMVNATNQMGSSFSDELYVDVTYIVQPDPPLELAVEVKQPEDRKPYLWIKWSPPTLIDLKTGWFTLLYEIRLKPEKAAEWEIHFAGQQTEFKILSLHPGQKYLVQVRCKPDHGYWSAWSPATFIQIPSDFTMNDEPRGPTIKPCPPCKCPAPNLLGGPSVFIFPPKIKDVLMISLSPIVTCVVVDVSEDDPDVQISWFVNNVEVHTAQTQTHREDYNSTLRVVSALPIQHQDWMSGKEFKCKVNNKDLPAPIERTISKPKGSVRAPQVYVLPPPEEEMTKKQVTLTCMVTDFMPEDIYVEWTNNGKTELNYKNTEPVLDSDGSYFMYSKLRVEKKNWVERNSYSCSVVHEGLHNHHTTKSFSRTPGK
Description: as §1

[4] = target: T4, hPRLR.mmh (soluble monomeric human PRLR) (human); test: SPR, 37C, mAb capture
T4 construct: soluble monomeric construct
T4 chain: T2 chain with V76I, T110A, M125I, T158I, I207T
Description: as §1

[5] = target: T1, human prolactin receptor (PRLR) on cells; test: FACS, T47D cells (native PRLR); note: test concentration or dose not given here
[6] = target: T1, human prolactin receptor (PRLR) on cells; test: FACS, HEK293/hPRLR cells; note: test concentration or dose not given here
[7] = target: T5, mouse PRLR on HEK293 cells (mouse, UniProt Q08501 20-608); test: FACS, HEK293/mPRLR cells; note: test concentration or dose not given here
T5 construct: whole, on cells; also called mPRLR; HEK293/mPRLR
T5 sequence (looked up): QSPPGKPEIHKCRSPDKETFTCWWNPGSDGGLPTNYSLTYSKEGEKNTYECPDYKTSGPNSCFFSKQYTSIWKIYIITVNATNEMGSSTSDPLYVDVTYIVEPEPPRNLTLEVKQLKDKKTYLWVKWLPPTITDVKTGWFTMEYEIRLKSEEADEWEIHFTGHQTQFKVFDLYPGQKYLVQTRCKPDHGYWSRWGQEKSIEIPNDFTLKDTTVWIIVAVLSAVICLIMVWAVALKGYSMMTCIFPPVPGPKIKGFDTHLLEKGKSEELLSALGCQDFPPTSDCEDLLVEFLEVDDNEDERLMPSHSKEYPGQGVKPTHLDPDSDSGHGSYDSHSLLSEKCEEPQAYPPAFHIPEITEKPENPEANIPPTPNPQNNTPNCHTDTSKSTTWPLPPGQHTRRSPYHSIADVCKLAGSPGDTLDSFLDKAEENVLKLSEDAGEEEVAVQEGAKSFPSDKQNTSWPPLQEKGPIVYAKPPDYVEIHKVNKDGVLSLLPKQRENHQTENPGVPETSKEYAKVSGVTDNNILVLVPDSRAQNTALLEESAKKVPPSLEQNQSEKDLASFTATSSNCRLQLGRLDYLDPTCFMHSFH

[8] = target: T6, monkey (macaca fascicularis) PRLR on HEK293 cells (macaca fascicularis, UniProt A0A2K5WXK1 25-619); test: FACS, HEK293/mfPRLR cells; note: test concentration or dose not given here
T6 construct: also called mfPRLR; HEK293/mfPRLR
T6 sequence: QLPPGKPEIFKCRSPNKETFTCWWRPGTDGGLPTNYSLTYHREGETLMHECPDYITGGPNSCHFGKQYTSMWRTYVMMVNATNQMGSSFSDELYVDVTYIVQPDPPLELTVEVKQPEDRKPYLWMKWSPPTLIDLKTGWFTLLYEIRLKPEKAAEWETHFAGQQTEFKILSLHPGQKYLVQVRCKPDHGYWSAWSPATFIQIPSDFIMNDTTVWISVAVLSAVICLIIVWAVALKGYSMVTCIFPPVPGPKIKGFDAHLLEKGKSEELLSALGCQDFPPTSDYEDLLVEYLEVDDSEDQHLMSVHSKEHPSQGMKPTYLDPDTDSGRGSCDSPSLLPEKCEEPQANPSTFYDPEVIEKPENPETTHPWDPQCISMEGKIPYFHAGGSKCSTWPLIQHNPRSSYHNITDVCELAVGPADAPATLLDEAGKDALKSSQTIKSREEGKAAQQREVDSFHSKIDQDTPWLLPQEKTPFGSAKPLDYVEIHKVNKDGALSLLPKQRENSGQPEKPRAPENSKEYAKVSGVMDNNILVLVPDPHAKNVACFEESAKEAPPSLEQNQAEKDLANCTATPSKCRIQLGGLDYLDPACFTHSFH

- % Internalization relative to Control I (alexa488 intensity in intracellular vesicles at 37 C, T47D cells) [1]: 214%
- T½ [2]: 36.4 min
- T½ [3]: 163 min
- T½ [4]: 42.3 min
- FACS Cell Binding (Fold Above Background) [5]: 46 fold above background
- FACS Cell Binding (Fold Above Background) [6]: 38 fold above background
- FACS Cell Binding (Fold Above Background) [7]: 1 fold above background
- FACS Cell Binding (Fold Above Background) [8]: 29 fold above background
B1: H1H6975N (antibody, human IgG1, V domains shown)
VH: EVHLVESGGGLVQPGGSLRLSCAASGFTFSSYEMNWVRQTPGKGLEWISHISSRSVIIYYADSVKGRFTISRDNAKNSLFLQMNSLRAEDTAVYFCAGITIFGIPEYWGQGTLVTVSS
VL: EIVLTQSPATLSLSPGERATLSCRASQSVSSYFAWYQQKPGQAPRLLIYDASSRATGIPTRFSGSGSGTDFTLTISSLEPEDFAVYYCQQRSSWPITFGQGTRLEIK
notes: also called H2M6975N

- % Internalization relative to Control I (alexa488 intensity in intracellular vesicles at 37 C, T47D cells) [1]: 190%
- T½ [2]: 18 min
- T½ [3]: 186 min
- T½ [4]: 32 min
- FACS Cell Binding (Fold Above Background) [5]: 39 fold above background
- FACS Cell Binding (Fold Above Background) [6]: 39 fold above background
- FACS Cell Binding (Fold Above Background) [7]: 1 fold above background
- FACS Cell Binding (Fold Above Background) [8]: 28 fold above background
B2: H1H6803P (antibody, human IgG1, V domains shown)
VH: EVQLVESGGGVVRPGGSLRLSCAASGFKFDDYGMTWVRHVPGKGLEWVSGINWNGGRTGYTDSVKGRFTISRDNAKNSLYLQMNSLRAEDTALYHCAGARRDAFDIWGQGTMVTVSS
VL: DIQMTQSPSSLSASIGDRVTITCRASQNIIKYLNWYQQNAGKAPKLLIYTASSLQSGVPSRFSGSGSGTDFTLTISSLQPEDFATYYCQQSSSSPYTFGQGTKLEIK
notes: human IgG1 Fc (H1H)

- % Internalization relative to Control I (alexa488 intensity in intracellular vesicles at 37 C, T47D cells) [1]: 186%
- T½ [2]: 21 min
- T½ [3]: 112 min
- T½ [4]: 25 min
- FACS Cell Binding (Fold Above Background) [5]: 38 fold above background
- FACS Cell Binding (Fold Above Background) [6]: 36 fold above background
- FACS Cell Binding (Fold Above Background) [7]: 2 fold above background
- FACS Cell Binding (Fold Above Background) [8]: 26 fold above background
B4: H1H6762P (antibody, human IgG1, V domains shown)
VH: QVQLVESGGGVVQPGRSLRLSCAASGFTFSHYGMVWVRQPPGKGLEWVALISFDGTTKYYADSVKGRFTISRDNSKNTLYLQMNSLRAEDTAVYFCVGAIAAAAFDLWGRGTLVTVSS
VL: EIVMTQSPATLSVSPGERATLSCRASQSVSSDLAWYQQKPGQAPRLLIYSASARATGIPARFTGSGSGTDFTLTISSLQSEDFAVYYCQQYNNWPMYTFGQGTKLEIK
notes: human IgG1 Fc (H1H)

- % Internalization relative to Control I (alexa488 intensity in intracellular vesicles at 37 C, T47D cells) [1]: 149%
- T½ [2]: 1 min
- T½ [3]: 52 min
- T½ [4]: 3 min
- FACS Cell Binding (Fold Above Background) [5]: 45 fold above background
- FACS Cell Binding (Fold Above Background) [6]: 47 fold above background
- FACS Cell Binding (Fold Above Background) [8]: 88 fold above background
B5: H1H6801P (antibody, human IgG1, V domains shown)
VH: QVQLQQSGPGLVKPSQTLSLTCVISGDSVSSNTAWNWVRQSPSRGLEWLGRTYYRSKWYNDYAVSVKSRITINPDTSKNQFSLLMNSVTPEDTAVYYCARVVRGLNYFDYWGQGTLVTVSS
VL: DIVMTQSPDSLAVSLGERATINCKSSQSVLYNSNNKNYLAWYQQKPGQPPKLLIYWSSSRESGVPDRFSGSGSGTDFTLTISGLQAEDVAIYYCQQYSTIPYTFGQGTKLEIK
notes: human IgG1 Fc (H1H)

Continued, binder first:

B3: H1H6800P (antibody, human IgG1, V domains shown)
VH: EVQLVESGGGLVQPGRSLRLSCAASGFTFDGYAMHWVRQGPGKGLEWVSGISWYSDTLGYADSVKGRFTISRDNAKNSLYLQMNSLRTEDTAFYYCAKISSSGWAFDYWGQGTLVTVSS
VL: EIVLTQSPGTLSLSPGERATLSCRASHSVSSAYLAWYQQKPGQTPRLLIYGTSSRATGIPDRFSGSGSGTDFTLTISRLEPEDFAVYYCQQYGSSPLFTFGPGTKVDIK
notes: human IgG1 Fc (H1H)
- % Internalization relative to Control I (alexa488 intensity in intracellular vesicles at 37 C, T47D cells) [1]: 198%
- T½ [2]: 11 min
- T½ [3]: 79 min
- T½ [4]: 10 min
- FACS Cell Binding (Fold Above Background) [5]: 41 fold above background
- FACS Cell Binding (Fold Above Background) [6]: 35 fold above background
- FACS Cell Binding (Fold Above Background) [7]: 1 fold above background
- FACS Cell Binding (Fold Above Background) [8]: 29 fold above background

B6: H1H6959N2 (antibody, human IgG1, V domains shown)
VH: EVQLVESGGGLVQPGRSLRLSCAASGFTFDDYAMHWVRQAPGKGLEWVSGISWHSGIIGYADSVKGRFTISRDNAKNSLYLQMNSLRTEDAALYYCAKIGSYFYFDSWGQGTLVTVSS
VL: EIVLTQSPGTLSLSPGERATLSCRASQSVSSNYLAWYQQKPGQAPRLLIYGASSRATGIPDRFSGSGSGTDFTLTISRLEPEDFAVYYCQQFGSSGYTFGQGTNLEIK
notes: also called H2M6959N2
- % Internalization relative to Control I (alexa488 intensity in intracellular vesicles at 37 C, T47D cells) [1]: 15.3%
- T½ [3]: 5 min
- T½ [4]: 0.4 min
- FACS Cell Binding (Fold Above Background) [5]: 9 fold above background
- FACS Cell Binding (Fold Above Background) [6]: 6 fold above background
- FACS Cell Binding (Fold Above Background) [7]: 2 fold above background
- FACS Cell Binding (Fold Above Background) [8]: 11 fold above background
